We go through one substance from paper PMC7719173.

For this assay, the target named is human TRAPPII complex (TRAPPC1, TRAPPC2, TRAPPC2L, TRAPPC3, TRAPPC4, TRAPPC5, TRAPPC6A, TRAPPC9, TRAPPC10) (human) (UniProt Q9Y5R8).

In the case of “Rab11 (from UniProt P62491 1-216) (natural protein)”, the catalytic efficiency (kcat/Km) of TRAPPII-catalysed release of Mant-GDP from 4 µM Rab-His6 in solution, TRAPPII 19–300 nM is 2900 M⁻¹ s⁻¹.
